T1: membrane-bound human IL-6R on TF-1 cells (human, UniProt P08887 20-468)
T1 sequence: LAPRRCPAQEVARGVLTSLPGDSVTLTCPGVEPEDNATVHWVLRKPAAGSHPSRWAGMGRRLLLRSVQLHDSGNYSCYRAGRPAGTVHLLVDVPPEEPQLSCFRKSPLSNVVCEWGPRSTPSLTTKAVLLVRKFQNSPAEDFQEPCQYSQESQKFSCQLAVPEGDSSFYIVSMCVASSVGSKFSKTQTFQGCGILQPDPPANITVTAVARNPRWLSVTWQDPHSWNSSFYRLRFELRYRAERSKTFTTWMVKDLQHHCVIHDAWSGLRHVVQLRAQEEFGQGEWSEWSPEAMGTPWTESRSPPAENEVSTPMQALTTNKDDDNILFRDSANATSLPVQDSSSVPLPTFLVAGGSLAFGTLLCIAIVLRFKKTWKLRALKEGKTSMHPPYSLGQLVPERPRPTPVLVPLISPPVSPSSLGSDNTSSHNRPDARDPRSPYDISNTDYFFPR

T2: cynomolgus monkey soluble IL-6R (from cynomolgus monkey serum) (cynomolgus monkey, UniProt P08887 20-365 (human entry))
T2 construct: Natural soluble IL-6R present in diluted normal cynomolgus monkey serum; also called cyno IL6R; cynomolgous sIL-6R
T2 chain: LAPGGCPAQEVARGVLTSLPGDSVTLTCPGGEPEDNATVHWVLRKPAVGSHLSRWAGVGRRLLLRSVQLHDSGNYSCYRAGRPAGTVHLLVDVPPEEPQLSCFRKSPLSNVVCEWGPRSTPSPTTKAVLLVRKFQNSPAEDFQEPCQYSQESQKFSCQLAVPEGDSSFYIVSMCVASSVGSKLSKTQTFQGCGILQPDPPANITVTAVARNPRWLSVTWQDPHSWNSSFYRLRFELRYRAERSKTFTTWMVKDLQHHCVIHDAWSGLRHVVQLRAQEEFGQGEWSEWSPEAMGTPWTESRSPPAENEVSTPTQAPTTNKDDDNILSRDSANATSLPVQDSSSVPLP

T3: recombinant soluble human IL-6R (human, UniProt P08887 20-365)
T3 construct: also called sIL-6R; shIL-6R
T3 sequence: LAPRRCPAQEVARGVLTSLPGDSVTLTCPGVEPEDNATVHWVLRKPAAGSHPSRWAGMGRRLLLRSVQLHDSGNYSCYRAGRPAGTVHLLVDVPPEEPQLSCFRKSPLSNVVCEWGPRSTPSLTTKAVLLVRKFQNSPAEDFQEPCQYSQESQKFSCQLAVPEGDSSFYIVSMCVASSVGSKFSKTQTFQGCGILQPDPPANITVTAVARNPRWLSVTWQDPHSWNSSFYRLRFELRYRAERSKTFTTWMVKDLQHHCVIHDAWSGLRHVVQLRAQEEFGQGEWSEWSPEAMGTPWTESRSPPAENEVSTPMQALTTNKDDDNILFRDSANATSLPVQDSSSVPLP


Experiments:
[1] = molecular target: T1, membrane-bound human IL-6R on TF-1 cells; test: cell-based or functional assay
[2] = molecular target: T2, cynomolgus monkey soluble IL-6R (from …); test: ratio of gp130 ELISA IC50s on human and cynomolgus sIL-6R
Description: (§1) The standard anti-cynomolgus monkey IL-6R gp130 ELISA assay detailed under ‘Potency, neutralisation and inhibition’ above was performed to assay the ICVDs in parallel for their ability to neutralise sIL6R in cynomolgous monkey serum and recombinant purified human sIL6R. Briefly, Maxisorp 96-well plates were coated overnight with 50 μl/well 1 μg/ml gp130 then blocked. ICVDs were serially diluted and mixed 1:1 with 200 ng/ml recombinant human IL-6, then 1:1 with either 20 ng/ml recombinant human sIL-6R or a 5-fold dilution of cynomolgus monkey serum and incubated for 1 hour to allow binding before adding to the gp130-coated plates. Bound cynomolgus monkey IL-6R was detected with 50 μl/well either 0.25 μg/ml (for human IL-6R) or 0.5 μg/ml (for monkey serum) BAF227 and then 50 μl/well 1/1000 Extravidin-HRP and the level of neutralisation by the ICVD of IL-6R binding to IL-6/gp130 was determined

[3] = molecular target: T3, recombinant soluble human IL-6R; test: gp130 ELISA (competition), parallel human arm: 10 ng/mL human IL-6R, 50 ng/mL human IL-6
Description: as §1

[4] = molecular target: T2, cynomolgus monkey soluble IL-6R (from …); test: anti-cynomolgus IL-6R gp130 ELISA (competition): 10x diluted cynomolgus serum, 50 ng/mL human IL-6, coated human gp130
Description: as §1

[5] = molecular target: T3, recombinant soluble human IL-6R; test: gp130 ELISA (competition): inhibition of human sIL-6R/IL-6 complex binding to coated gp130; 20 ng/mL IL6R, 100 ng/mL IL6
Description: Briefly, Maxisorp 96-well plates were coated overnight with 50 μl/well 0.5 μg/ml gp130 then blocked. ICVDs were serially diluted and mixed 1:1 with 100 ng/ml recombinant human IL-6 then 1:1 with 40 ng/ml recombinant human sIL-6R, and incubated for 1 hour to allow binding before adding to the gp130-coated plates. Bound IL-6R was detected with 50 μl/well 0.250 μg/ml BAF227 and then 50 μl/well 1/1000 diluted Extravidin-HRP and the level of neutralisation by the ICVD of IL-6R binding to IL-6/gp130 was determined.
Dose response curves were obtained (dose response curves of particular ICVDs illustrated in FIG. 1). […] This was confirmed with curve-fitting software (Graphpad Prism), which fitted 4 parameter curves to the data and calculated the IC50s (Table 4.1, below).

[6] = molecular target: T1, membrane-bound human IL-6R on TF-1 cells; test: cell-based or functional assay; remark: listed apart in the source
[7] = molecular target: T3, recombinant soluble human IL-6R; test: standard gp130 ELISA (competition), Experiment 2; 10 ng/mL IL-6R, 50 ng/mL IL-6
Description: The inhibitory potency and efficacy (maximal inhibition) of the E. coli-produced 5G9 derivatives were confirmed in vitro in the gp130 ELISA, TF-1 cell and M1 cell functional assays measuring responses mediated via human IL-6R. The gp130 assays follow the standard protocol with a final assay concentration of 10 ng/mL IL-6R and 50 ng/mL IL-6.

[8] = molecular target: T1, membrane-bound human IL-6R on TF-1 cells; test: cell-based or functional assay; remark: listed apart in the source
[9] = molecular target: T3, recombinant soluble human IL-6R; test: standard gp130 ELISA (competition); 10 ng/mL IL-6R, 50 ng/mL IL-6; column 'Potency'
Description: Mutant 5G9 sequences were produced and tested for their potency in the standard gp130 ELISA. The standard gp130 ELISA has a final assay concentration of 10 ng/mL IL-6R and 50 ng/mL IL-6.

[10] = molecular target: T3, recombinant soluble human IL-6R; test: cell-based or functional assay
[11] = molecular target: T3, recombinant soluble human IL-6R; test: standard gp130 ELISA (competition); reference 5G9

Row | Binder | IC50 of inhibition of IL-6-induced TF-1 cell proliferation [1] | Ratio Cyno IC50/human IC50 (title: human IC50 divided by cynomolgous IC50) [2] | IC50 [3] | IC50 [4] | IC50 [5] | Potency in the TF-1 assay [8] | IC50 [9] | further results
1 | 4D3 (VHH, Llama ICVD from library 46-3, produced in E. coli; also called VIL-4D3; not shown: C-terminal Flag and 6xHis tags from vector pMEK222) VHH: EVQLVESGGGSVQAGESLTLSCVASISTFSQNAMGWFRQAAGKRRESVARISSSGNVGYTDAVKGRFTMSRDNAKKTVYLQMNSLKPEDTAVYYCNAYSMSGELAAPWGQGTQVTVSS | 26 nM | 1.9 | 0.691 nM | 0.372 nM | 0.66 nM |  |  | 
2 | 20A11 (prior art comparative example) (VHH, Prior art anti-IL-6R polypeptide disclosed in WO 2010/115998; also called PMP20A11) VHH: EVQLVESGGGLVQPGGSLRLSCAASGSVFKINVMAWYRQAPGKGRELVAGIISGGSTSYADSVKGRFTISRDNAKNTLYLQMNSLRPEDTAVYYCAFITTESDYDLGRRYWGQGTLVTVSS | 1.1 nM | 2.3 | 0.24 nM | 0.106 nM |  |  |  | TF-1 cell assay EC50 (5 ng/ml IL-6) [6]: 0.56 nM; EC50 [7]: 0.22 nM
3 | 3C12 (VHH, Llama ICVD from library 37-3, produced in E. coli; also called VIL-3C12; not shown: C-terminal Flag and 6xHis tags from vector pMEK222) VHH: EVQLVESGGGLAQLGGSLRLSCVASGNIFSSNTAGWFRQAPGKQREWVAGISIGGMPAYADSVKGRFTISRDNAKNTVYLQMNSLKPEDTAVYYCATGGTEYDYWGQGTQVTVSS | 44.6 nM | 0.9 | 3.53 nM | 4.14 nM | 1.89 nM |  |  | 
4 | 5G9 (VHH, also called VIL-5G9; 'Wild type' 5G9; not shown: C-terminal Flag and 6xHis tags from vector pMEK222) VHH: EVQLVESGGGLVQAGGSTRLTCKASGSIFNINSINVMAWYRQAPGKQRELVAIIGKGGGTNYADFVKGRFTISRDAAKNTVNLQMNSLKPEDTAVYYCYADYEDRDSPFNASWGQGTQVTVSS | 0.9 nM | 0.2 | 0.148 nM | 0.804 nM | 0.16 nM | 0.23 not printed (nM in the filing's other TF-1 tables) | 0.09 nM | 
5 | ID-122V (VHH, E. coli-produced trans-selective 5G9 derivative; also called 5G9 + F29S, Q47G, K89R, R105H, F109H; not shown: C-terminal FLAG-6xHis) VHH: EVQLVESGGGLVQAGGSTRLTCKASGSISNINSINVMAWYRQAPGKGRELVAIIGKGGGTNYADFVKGRFTISRDAAKNTVNLQMNSLRPEDTAVYYCYADYEDHDSPHNASWGQGTQVTVSS |  |  |  |  |  |  |  | M1 cellular assay EC50 (20 ng/ml IL-6R, 100 ng/ml IL-6) [10]: 3.96 nM; EC50 [7]: 0.489 nM
6 | ID-58V (VHH, Mutant of 5G9; also called 5G9 + F65V; not shown: C-terminal Flag- and His-tags of E. coli constructs) VHH: EVQLVESGGGLVQAGGSTRLTCKASGSIFNINSINVMAWYRQAPGKQRELVAIIGKGGGTNYADVVKGRFTISRDAAKNTVNLQMNSLKPEDTAVYYCYADYEDRDSPFNASWGQGTQVTVSS |  |  |  |  |  |  | 0.36 nM | fold increase of IC50 against 5G9 [11]: ~3 fold
7 | ID-54V (VHH, Mutant of 5G9; also called 5G9 + R105H; not shown: C-terminal Flag- and His-tags of E. coli constructs) VHH: EVQLVESGGGLVQAGGSTRLTCKASGSIFNINSINVMAWYRQAPGKQRELVAIIGKGGGTNYADFVKGRFTISRDAAKNTVNLQMNSLKPEDTAVYYCYADYEDHDSPFNASWGQGTQVTVSS |  |  |  |  |  | 0.31 not printed (nM in the filing's other TF-1 tables) | 0.15 nM | 
8 | ID-53V (VHH, Mutant of 5G9; also called 5G9 + F109H; not shown: C-terminal Flag- and His-tags of E. coli constructs) VHH: EVQLVESGGGLVQAGGSTRLTCKASGSIFNINSINVMAWYRQAPGKQRELVAIIGKGGGTNYADFVKGRFTISRDAAKNTVNLQMNSLKPEDTAVYYCYADYEDRDSPHNASWGQGTQVTVSS |  |  |  |  |  | 17.5 not printed (nM in the filing's other TF-1 tables) | 0.3 nM | 
9 | ID-57V (VHH, Mutant of 5G9; also called 5G9 + F29I; not shown: C-terminal Flag- and His-tags of E. coli constructs) VHH: EVQLVESGGGLVQAGGSTRLTCKASGSIININSINVMAWYRQAPGKQRELVAIIGKGGGTNYADFVKGRFTISRDAAKNTVNLQMNSLKPEDTAVYYCYADYEDRDSPFNASWGQGTQVTVSS |  |  |  |  |  |  | 0.31 nM | fold increase of IC50 against 5G9 [11]: ~3 fold
